Results from publication PMC5816542, “In vitro and in vivo characterization of three Cellvibrio japonicus glycoside hydrolase family 5 members reveals potent xyloglucan backbone-cleaving functions” (Biotechnology for Biofuels, 2018).

Experiments:
CjGH5D = molecular target: T1, CjGH5D (Cellvibrio japonicus, UniProt B3PD52); assay: time-dependent inactivation, residual XXXG-CNP hydrolysis at […] nm; format: biochemical; details: covalent; irreversible active-site affinity label; 20 mM phosphate pH 7.5, 40 °C, 0.1 mg/mL BSA; XXXG-CNP substrate
T1 construct: gene cel5D; GH5_4 catalytic module, lipoprotein signal peptide and serine-rich linker removed; N-terminal His6 (pET28a), E. coli; borders 96-468 are those of the crystal model

purified protein [1] = substrate: O=[N+]([O-])c1ccc(O[C@@H]2O[C@H](CO)[C@@H](O[C@@H]3O[C@H](CO)[C@@H](O[C@@H]4O[C@H](CO)[C@@H](O[C@@H]5O[C@H](CO)[C@@H](O)[C@H](O)[C@H]5O)[C@H](O)[C@H]4O)[C@H](O)[C@H]3O)[C@H](O)[C@H]2O)c(Cl)c1; assay: purified protein; format: biochemical, Cellvibrio japonicus; details: 50 mM phosphate pH 7.5, 55 °C
purified protein [2] = substrate: O=[N+]([O-])c1ccc(O[C@@H]2O[C@H](CO)[C@@H](O[C@@H]3O[C@H](CO[C@H]4OC[C@@H](O)[C@H](O)[C@H]4O[C@@H]4O[C@H](CO)[C@H](O)[C@H](O)[C@H]4O)[C@@H](O[C@@H]4O[C@H](CO[C@H]5OC[C@@H](O)[C@H](O)[C@H]5O[C@@H]5O[C@H](CO)[C@H](O)[C@H](O)[C@H]5O)[C@@H](O[C@@H]5O[C@H](CO[C@H]6OC[C@@H](O)[C@H](O)[C@H]6O)[C@@H](O)[C@H](O)[C@H]5O)[C@H](O)[C@H]4O)[C@H](O)[C@H]3O)[C@H](O)[C@H]2O)c(Cl)c1; assay: purified protein; format: biochemical, Cellvibrio japonicus
purified protein [3] = substrate: O=[N+]([O-])c1ccc(O[C@@H]2O[C@H](CO)[C@@H](O[C@@H]3O[C@H](CO)[C@@H](O[C@@H]4O[C@H](CO)[C@@H](O)[C@H](O)[C@H]4O)[C@H](O)[C@H]3O)[C@H](O)[C@H]2O)c(Cl)c1; assay: purified protein; format: biochemical, Cellvibrio japonicus; details: 50 mM phosphate pH 7.5, 55 °C
purified protein [4] = substrate: O=[N+]([O-])c1ccc(O[C@@H]2O[C@H](CO)[C@@H](O[C@@H]3O[C@H](CO[C@H]4OC[C@@H](O)[C@H](O)[C@H]4O)[C@@H](O[C@@H]4O[C@H](CO[C@H]5OC[C@@H](O)[C@H](O)[C@H]5O)[C@@H](O[C@@H]5O[C@H](CO[C@H]6OC[C@@H](O)[C@H](O)[C@H]6O)[C@@H](O)[C@H](O)[C@H]5O)[C@H](O)[C@H]4O)[C@H](O)[C@H]3O)[C@H](O)[C@H]2O)c(Cl)c1; assay: purified protein; format: biochemical, Cellvibrio japonicus

Molecule: O=C(CBr)N[C@@H]1O[C@H](CO)[C@@H](O[C@@H]2O[C@H](CO[C@H]3OC[C@@H](O)[C@H](O)[C@H]3O)[C@@H](O[C@@H]3O[C@H](CO[C@H]4OC[C@@H](O)[C@H](O)[C@H]4O)[C@@H](O[C@@H]4O[C@H](CO[C@H]5OC[C@@H](O)[C@H](O)[C@H]5O)[C@@H](O)[C@H](O)[C@H]4O)[C@H](O)[C@H]3O)[C@H](O)[C@H]2O)[C@H](O)[C@H]1O [XXXG-NHCOCH2Br]
- KI (inactivation) (CjGH5D): 1780 ± 170 µM

B1: CjGH5E (Cellvibrio japonicus Ueda107) (protein)
chain: SSSGSSLTSVELTRLMGVGWNVGNTLDAIGGETNWGNPLITQQLISSVKAAGFKTLRVPVAWSKFTNAATFTIDPAWLNRVEQVVNYALNEDMYVMINIHWDGGWMQPTYAQQAYVNNRLSIMWTQIANHFRNYGDKLLFAGTNEVMVEGDYGTPTVEYYTVQNSFNQTFVDTVRATGGNNANRFLVVQGFNTNIDHTVNFARIPTDSASNRLLMEVHYYDPYNFTLNTSSNITQWGAIATNPAVTETWANEAYADAQFEKMRTNFINRGVGVILGEYGVVSRLNVSGHETFRVYYNQYITKSAYQRGLVPVYWDNGYSGDGGFALFDRNSGNQLYPDIIRAIVNATF
notes: GH5_4 catalytic module, signal peptide and CBM2-CBM10 removed; N-terminal His6 (pMCSG53), E. coli
- Km (purified protein [1]): 5020 ± 350 µM
- kcat (purified protein [1]): 3 ± 0.117 s⁻¹
- kcat/Km (purified protein [1]): 598 ± 46.7 M⁻¹ s⁻¹
- Km (purified protein [2]; 50 mM phosphate pH 7.5, 55 °C): 10 ± 1 µM
- kcat (purified protein [2]; 50 mM phosphate pH 7.5, 55 °C): 5.53 ± 0.15 s⁻¹
- kcat/Km (purified protein [2]; 50 mM phosphate pH 7.5, 55 °C): 553000 ± 56700 M⁻¹ s⁻¹
- Km (purified protein [3]): 11800 ± 600 µM
- kcat (purified protein [3]): 3.18 ± 0.117 s⁻¹
- kcat/Km (purified protein [3]): 270 ± 16.7 M⁻¹ s⁻¹
- Km (purified protein [4]; 50 mM phosphate pH 7.5, 55 °C): 10 ± 1 µM
- kcat (purified protein [4]; 50 mM phosphate pH 7.5, 55 °C): 4.23 ± 0.0667 s⁻¹
- kcat/Km (purified protein [4]; 50 mM phosphate pH 7.5, 55 °C): 423000 ± 43300 M⁻¹ s⁻¹

B2: CjGH5F (Cellvibrio japonicus Ueda107) (protein)
chain: FSVTVGGSSSGTMRNLTSVQLARLMGAGWNLGNSLEAIGSETAWGNPATTQALINAVKAAGFKTIRIPVSWSQYADANYNISSSWMARVKQVVDYAKNAGFYVIINIHWDGGWMQPTYANQAAVNSRLTKLWTQIANNFKNYDDYLLFAGTNEVMVDGDYGTPTYEYYTVQNSFNQTFVNTVRATGGNNAVRHLVVQGFNTNIDHTISFVSIPSDSASNRLMMEVHYYDPYNFTLNASSNIWQWGANATNSSATETWANETYVNTQFQRMKTRFIDNGVAVILGEFGAISRTNIPGAESYRTYWNQYITRAAYTRGLVPIYWDNGYTANNGMGLFDRYNGAQVYPNLISTIINAAQ
notes: C-terminal GH5_4 catalytic module, signal peptide and FN3 domain removed; N-terminal His6 (pET28a), E. coli
- Km (purified protein [2]; 50 mM phosphate pH 7.0, 50 °C): 30 ± 2 µM
- kcat (purified protein [2]; 50 mM phosphate pH 7.0, 50 °C): 6.55 ± 0.133 s⁻¹
- kcat/Km (purified protein [2]; 50 mM phosphate pH 7.0, 50 °C): 218000 ± 15000 M⁻¹ s⁻¹
- Km (purified protein [4]; 50 mM phosphate pH 7.0, 50 °C): 70 ± 10 µM
- kcat (purified protein [4]; 50 mM phosphate pH 7.0, 50 °C): 2.82 ± 0.0667 s⁻¹
- kcat/Km (purified protein [4]; 50 mM phosphate pH 7.0, 50 °C): 40200 ± 5830 M⁻¹ s⁻¹

B3: CjGH5D (Cellvibrio japonicus Ueda107) (protein)
chain: GLYPSYNTSPAAPDSTGMQSTAVQLAGKIRLGWNIGNTMEAIGGETAWGNPMVSNELLKLVKDSGFDAVRIPVAWDQYANQESAEISAAWLNRVKQVVQMAIDNELYVLINIHWDGGWLENNITPAKKDENNAKQKAFWEQIATHLRDFDEHLLFAGTNEPNAENAEQMDVLNSYLQTFVDAVRSTGGKNAYRVLVLQGPVTDIEKTNELWTHMPADTATDRLMAEVHFYTPYNFALMRQDESWGKQFYYWGEGFLSTTDTERNPTWGEEATIDQLFDLMKTKFVDQGIPVVLGEFSAMRRTNLTGDALTLHLAGRAYYHKYVTQQALARGLLPFYWDNGGNDNFSSGIFNRQQNTVFDQQVLDALLEGAGAQ
notes: GH5_4 catalytic module, lipoprotein signal peptide and serine-rich linker removed; N-terminal His6 (pET28a), E. coli; borders 96-468 are those of the crystal model
- Km (purified protein [2]; 50 mM phosphate pH 7.5, 50 °C): 180 ± 20 µM
- kcat (purified protein [2]; 50 mM phosphate pH 7.5, 50 °C): 2.7 ± 0.0667 s⁻¹
- kcat/Km (purified protein [2]; 50 mM phosphate pH 7.5, 50 °C): 15000 ± 1720 M⁻¹ s⁻¹
- Km (purified protein [4]; 50 mM phosphate pH 7.5, 50 °C): 810 ± 100 µM
- kcat (purified protein [4]; 50 mM phosphate pH 7.5, 50 °C): 4.68 ± 0.2 s⁻¹
- kcat/Km (purified protein [4]; 50 mM phosphate pH 7.5, 50 °C): 5780 ± 750 M⁻¹ s⁻¹
